Results on five substances are retold here after PMC12048676.

One assay addresses RhoGDI1 (Homo sapiens) (UniProt P52565). The note with it: cited from earlier work.
Assay [1] addresses prenylated A647-Cdc42 (human) (UniProt P60953).
Assay [2] has as its target geranylgeranylated Cy3-Cdc42 (human) (UniProt P60953).
Assay [3] concerns the target prenylated A647-Cdc42 (human) (UniProt P60953). The source holds these as a separate data set.
The target of assay [4] is biotin-Cy3-Cdc42 (geranylgeranylated) (human) (UniProt P60953). The assay can be described thus: single-molecule dual-color TIRF microscopy, co-recruitment; 100 pM biotin-Cy3-Cdc42:A647-RhoGDI1 complex, imaged <2 min after dilution, captured on neutravidin-coated biotin-PEG coverslips; 50 mM HEPES pH 7.5, 50 mM NaCl, 2 mM MgCl2; 22 ms per frame; 23 °C.
For assay [5], the target named is prenylated A647-Cdc42 (human) (UniProt P60953). This is another data set of the same source.

Cdc42, sequence (P60953 1-188): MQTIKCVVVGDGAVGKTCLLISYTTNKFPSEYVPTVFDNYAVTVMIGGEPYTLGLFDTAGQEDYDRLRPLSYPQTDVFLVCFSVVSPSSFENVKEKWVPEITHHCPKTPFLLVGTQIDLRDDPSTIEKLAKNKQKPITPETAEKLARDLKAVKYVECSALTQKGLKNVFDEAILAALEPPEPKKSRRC
UniProt P52565, sequence (P52565 2-204): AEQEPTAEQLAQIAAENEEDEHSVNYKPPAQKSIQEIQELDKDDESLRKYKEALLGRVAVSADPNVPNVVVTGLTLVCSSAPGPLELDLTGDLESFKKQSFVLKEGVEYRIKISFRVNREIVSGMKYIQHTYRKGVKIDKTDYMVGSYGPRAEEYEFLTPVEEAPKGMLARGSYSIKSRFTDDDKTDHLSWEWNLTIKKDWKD

In the case of Cdc42 (from UniProt P60953), in the assay with RhoGDI1 (Homo sapiens), the equilibrium dissociation constant (Kd) is 0.09 nM. In assay [1], “A488-2xwCRIB (from UniProt P42768 201-268; P42768 201-268) (domain or fragment)” showed a dwell time of A647-Cdc42 on the membrane inside the GEF-containing region in microfluidic flow-out, with 2xwCRIB of 1.4 fold. As to “RhoGDI1 (unlabeled) (from UniProt P19803 1-204) (natural protein)”, the maximal rate of nucleotide exchange (Cy5-GDP to unlabeled GDP) from Cy5-GDP:Cy3-Cdc42:RhoGDI1 complexes (100 nM) with ITSNcat-His10 pre-bound to PM LUVs, GEF concentration varied in assay [2] worked out at 0.0002 s⁻¹. In assay [3], this substance showed a concentration of Cdc42:RhoGDI1 complexes against free Cdc42 needed to reach similar levels of membrane-bound GTPase on SLBs (600 nM vs 5.5 nM) of 100 fold. In assay [4], “A647-RhoGDI1 (from UniProt P19803 1-204) (natural protein)” had a fraction of Cdc42 molecules co-recruited with RhoGDI1 of 63%.

“full-length Atto488-N-WASP (from UniProt O00401 1-505) (natural protein)”: the patterning index of A647-Cdc42 (inside against outside of GEF-containing areas) after GEF addition in the presence of Atto488-N-WASP in assay [5] was 1.35.
